Laboratory results as given in the RNAGym collection of RNA variant scans (doi:10.1093/molbev/msab373).

B1: Azoarcus group I ribozyme (parent)
chain: GUGCCUUGCGCCGGGAAACCACGCAAGGGAUGGUGUCAAAUUCGGCGAAACCUAAGCGCCCGCCCGGGCGUAUGGCAACGCCGAGCCAAGCUUCGGCGCCUGCGCCGAUGAAGGUGUAGAGACUAGACGGCACCCACCUAAGGCAAACGCUAUGGUGAAGGCAUAGUCCAGGGAGUGGCGAAAGUCACACAAACCGG

Variants of: B1
Assay: reverse-splicing fitness (ratio to wild type); higher = more active; in vitro selection; Mg2+ level not given
Summary of the method: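 An in vitro group I ribozyme library with randomized positions was T7-transcribed and gel-purified. In triplicate, 10 pmol RNA in EPPS pH 7.5 was reacted with 50 pmoles of a 30-nt RNA substrate for 1 h at 37 °C across several added MgCl2 levels (1–48 mM), then stopped with EDTA. Products were reverse transcribed from a substrate-complementary primer, PCR-amplified and sequenced (HiSeq 4000). Fitness is a variant's read proportion after selection over that before, normalised to wild type.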

Variant	reverse-splicing fitness
C82A A111U A120C A145C C150G	0.00984
C82A A111U A120C A145C C150U	0.0149
C82A A111U A120C A145C C150A	0.012
C82A A111G C150G C169A U176C	0.0122
C82A A111G C150G C169A U176G	0.00753
C82A A111G C150G C169A U176A	0.0113
C82A A111U A120C A145C C150A C169A U176C	0.0164
C82A A111U A120C A145C C150A C169A U176G	0.00772
C82A A111U A120C A145C C150A C169A U176A	0.0206
C82A A111U A120C A145U C150G U176A	0.00752
C82A A111U A120C A145U C150G U176C	0.00808
C82A A111U A120C A145U C150G U176G	0.00439
C82A A111U A120C A145C C169U U176C	0.0149
C82A A111U A120C A145C C169U U176G	0.00416
C82A A111U A120C A145C C169U U176A	0.0168
C82A A111U A120C A145U C150G C169G U176G	0.00698
C82A A111U A120C A145U C150G C169G U176C	0.00626
C82A A111U A120C A145U C150G C169G U176A	0.00986
C82A A111U A120C A145C C150G C169A U176A	0.00999
C82A A111U A120C A145C C150G C169A U176G	0.0073
C82A A111U A120C A145C C150G C169A U176C	0.011

Variant	reverse-splicing fitness
C82A A111G A145G C169G	0.00988
C82A A111G A145G C169U	0.0126
C82A A111G A145G C169A	0.0102
C82A A111U A120C A145U C150A C169A U176C	0.0189
C82A A111U A120C A145U C150A C169A U176G	0.00919
C82A A111U A120C A145U C150A C169A U176A	0.0231
C82A A111G A145G C150U C169G U176A	0.0156
C82A A111G A145G C150U C169G U176G	0.00644
C82A A111G A145G C150U C169G U176C	0.0198
C82A A111G C150A C169G U176A	0.0221
C82A A111G C150A C169G U176G	0.00691
C82A A111G C150A C169G U176C	0.0249
C82A A111G A145G C169G U176C	0.0288
C82A A111G A145G C169G U176A	0.0194
C82A A111G A145G C169G U176G	0.00515
C82A A111U A120C A145C C150G U176G	0.0032
C82A A111U A120C A145C C150G U176A	0.00531
C82A A111U A120C A145C C150G U176C	0.00974
C82A A111G A145G C150U C169A U176G	0.00696
C82A A111G A145G C150U C169A U176C	0.0181
C82A A111G A145G C150U C169A U176A	0.0167

Variant	reverse-splicing fitness
C82A A111G C150A U176A	0.0284
C82A A111G C150A U176C	0.0387
C82A A111G C150A U176G	0.0144
C82A A111G A145G C150U	0.32
C82A A111U A120C A145U C150A C169G U176C	0.0263
C82A A111U A120C A145U C150A C169G U176G	0.00723
C82A A111U A120C A145U C150A C169G U176A	0.0219
C82A A111G A145U C150A C169G U176G	0.00624
C82A A111G A145U C150A C169G U176A	0.0174
C82A A111G A145U C150A C169G U176C	0.016
C82A A111G U176A	0.189
C82A A111G U176G	0.0537
C82A A111G U176C	0.262
C82A A111G A145U C150G	0.0319
C82A A111G A145U C150A	0.0313
C82A A111G A145U C150U	0.254
C82A A111U A120C A145G C150A U176C	0.0241
C82A A111U A120C A145G C150A U176G	0.00997
C82A A111U A120C A145G C150A U176A	0.0105
C82A A111U A120C A145U	0.0284
C82A A111U A120C A145C	0.0267

Variant	reverse-splicing fitness
C82A A111U A120C A145G	0.0269
C82A A111G A145U C150G C169A U176C	0.0104
C82A A111G A145U C150G C169A U176A	0.0104
C82A A111G A145U C150G C169A U176G	0.00684
C82A A111G A145G C150U C169U	0.0135
C82A A111G A145G C150U C169A	0.0115
C82A A111G A145G C150U C169G	0.0102
C82A A111G C150U C169G U176A	0.0188
C82A A111G C150U C169G U176G	0.00633
C82A A111G C150U C169G U176C	0.0194
C82A A111U A120C A145C C150G C169G U176G	0.0065
C82A A111U A120C A145C C150G C169G U176C	0.00882
C82A A111U A120C A145C C150G C169G U176A	0.0109
C82A A111G A145G C169U U176C	0.0149
C82A A111G A145G C169U U176G	0.00606
C82A A111G A145G C169U U176A	0.0137
C82A A111G C150U C169G	0.00992
C82A A111G C150U C169A	0.011
C82A A111G C150U C169U	0.0122
C82A A111G A145G C150U C169U U176G	0.00655
